According to patent publication US5705608, “Human IL-2 receptor γ chain molecule” (Ajinomoto Co., Inc., dated 1998):

Tests used:
[1] = biological target: T1, IL-2 labelled with 125I (human, UniProt P60568, 125I label by the chloramine-T method); experiment: 125I-IL-2 binding to Lβγ-9 cells at 4° C., Scatchard plot
Experimental: (§1) The radioactivity of ^125I-IL-2 bound or not bound to the cells was determined. The value for the background or the binding radioactivity in the case of addition of unlabelled IL-2 was subtracted from each of the measurements to calculate the binding amounts, the binding ability and the binding affinity of IL-2 to the receptor as determined by a Scatchard plot.

[2] = biological target: T1, IL-2 labelled with 125I; experiment: 125I-IL-2 binding to Lαβγ-4 cells at 4° C., Scatchard plot, biphasic, high affinity component
Experimental: as §1

[3] = biological target: T1, IL-2 labelled with 125I; experiment: 125I-IL-2 binding to Lαβγ-4 cells at 4° C., Scatchard plot, biphasic, low affinity component
Experimental: as §1

Binder	Kd [1] [nM]	Kd [2] [nM]	Kd [3] [nM]
IL-2 receptor β and γ chains on Lβγ-9 cells (L929 cells with IL-2 receptor β and γ chain expression) (receptor) chain 1: AVNGTSQFTCFYNSRANISCVWSQDGALQDTSCQVHAWPDRRRWNQTCELLPVSQASWACNLILGAPDSQKLTTVDIVTLRVLCREGVRWRVMAIQDFKPFENLRLMAPISLQVVHVETHRCNISWEISQASHYFERHLEFEARTLSPGHTWEEAPLLTLKQKQEWICLETLTPDTQYEFQVRVKPLQGEFTTWSPWSQPLAFRTKPAALGKDTIPWLGHLLVGLSGAFGFIILVYLLINCRNTGPWLKKVLKCNTPDPSKFFSQLSSEHGGDVQKWLSSPFPSSSFSPGGLAPEISPLEVLERDKVTQLLLQQDKVPEPASLSSNHSLTSCFTNQGYFFFHLPDALEIEACQVYFTYDPYSEEDPDEGVAGAPTGSSPQPLQPLSGEDDAYCTFPSRDDLLLFSPSLLGGPSPPSTAPGGSGAGEERMPPSLQERVPRDWDPQPLGPPTPGVPDLVDFQPPPELVLREAGEEVPDAGPREGVSFPWSRPPGQGEFRALNARLPLNTDAYLSLQELQGQDPTHLV chain 2: LNTTILTPNGNEDTTADFFLTTMPTDSLSVSTLPLPEVQCFVFNVEYMNCTWNSSSEPQPTNLTLHYWYKNSDNDKVQKCSHYLFSEEITSGCQLQKKEIHLYQTFVVQLQDPREPRRQATQMLKLQNLVIPWAPENLTLHKLSESQLELNWNNRFLNHCLEHLVQYRTDWDHSWTEQSVDYRHKFSLPSVDGQKRYTFRVRSRFNPLCGSAQHWSEWSHPIHWGSNTSKENPFLFALEAVVISVGSMGLIISLLCVYFWLERTMPRIPTLKNLEDLVTEYHGNFSAWSGVSKGLAESLQPDYSERLCLVSEIPPKGGALGEGPGASPCNQHSPYWAPPCYTLKPET	4.6		
IL-2 receptor α, β and γ chains on Lαβγ-4 cells (L929 with IL-2 receptor α, β and γ chain expression) (receptor) chain 1: ELCDDDPPEIPHATFKAMAYKEGTMLNCECKRGFRRIKSGSLYMLCTGNSSHSSWDNQCQCTSSATRNTTKQVTPQPEEQKERKTTEMQSPMQPVDQASLPGHCREPPPWENEATERIYHFVVGQMVYYQCVQGYRALHRGPAESVCKMTHGKTRWTQPQLICTGEMETSQFPGEEKPQASPEGRPESETSCLVTTTDFQIQTEMAATMETSIFTTEYQVAVAGCVFLLISVLLLSGLTWQRRQRKSRRTI chain 2: AVNGTSQFTCFYNSRANISCVWSQDGALQDTSCQVHAWPDRRRWNQTCELLPVSQASWACNLILGAPDSQKLTTVDIVTLRVLCREGVRWRVMAIQDFKPFENLRLMAPISLQVVHVETHRCNISWEISQASHYFERHLEFEARTLSPGHTWEEAPLLTLKQKQEWICLETLTPDTQYEFQVRVKPLQGEFTTWSPWSQPLAFRTKPAALGKDTIPWLGHLLVGLSGAFGFIILVYLLINCRNTGPWLKKVLKCNTPDPSKFFSQLSSEHGGDVQKWLSSPFPSSSFSPGGLAPEISPLEVLERDKVTQLLLQQDKVPEPASLSSNHSLTSCFTNQGYFFFHLPDALEIEACQVYFTYDPYSEEDPDEGVAGAPTGSSPQPLQPLSGEDDAYCTFPSRDDLLLFSPSLLGGPSPPSTAPGGSGAGEERMPPSLQERVPRDWDPQPLGPPTPGVPDLVDFQPPPELVLREAGEEVPDAGPREGVSFPWSRPPGQGEFRALNARLPLNTDAYLSLQELQGQDPTHLV chain 3: LNTTILTPNGNEDTTADFFLTTMPTDSLSVSTLPLPEVQCFVFNVEYMNCTWNSSSEPQPTNLTLHYWYKNSDNDKVQKCSHYLFSEEITSGCQLQKKEIHLYQTFVVQLQDPREPRRQATQMLKLQNLVIPWAPENLTLHKLSESQLELNWNNRFLNHCLEHLVQYRTDWDHSWTEQSVDYRHKFSLPSVDGQKRYTFRVRSRFNPLCGSAQHWSEWSHPIHWGSNTSKENPFLFALEAVVISVGSMGLIISLLCVYFWLERTMPRIPTLKNLEDLVTEYHGNFSAWSGVSKGLAESLQPDYSERLCLVSEIPPKGGALGEGPGASPCNQHSPYWAPPCYTLKPET		0.077	2.4
